The RNAGym collection of RNA variant scans (doi:10.1021/acssynbio.7b00057)

B1: Pistol ribozyme (parent)
chain: GGGUCGUUGUUCCAUAAUCGCGUGGAUAUGGCACGCAAGUUUCUACCGGGCACCGUAAAUGUCCGACUGGAGCCGUUCGGGCGGCUAUAAACAGACCUCAGGCCCGAAGCGUGGCGGCACCUGCCGCCGGUGGUAAAAAAGAUCGGAAGAGCACACGUCU

Variants of: B1
Assay: aptazyme ON/OFF ratio, guanine; higher = stronger switching; co-transcriptional cleavage with and without guanine

Row | Variant | aptazyme ON/OFF ratio
1 | U7G U8G U10A C13U | 1.36
2 | U7G U8G U10A C13A | 1.34
3 | U7G U8G U10A C12U | 1.45
4 | U7G U8G U10A C12A | 1.28
5 | U7G U8G U10A C12G | 1.29
6 | U7G U8G U10C U11A C13U | 1.47
7 | U7G U8G U10C U11A C13A | 1.38
8 | U7G U8G U10C U11A C13G | 1.38
9 | U7G U8G U10G U11G C12A C13G | 1.03
10 | U7G U8G U10G U11G C12A C13A | 1.25
11 | U7G U8G U10G U11G C12A C13U | 1.33
12 | U7G U8G G9U U10G U11G C12U C13G | 1.12
13 | U7G U8G G9U U10G U11G C12U C13U | 1.18
14 | U7G U8G G9U U10G U11G C12U C13A | 1.11
15 | U7G U8G U10C U11C C12U C13U | 1.4
16 | U7G U8G U10C U11C C12U C13A | 1.29
17 | U7G U8G U10C U11C C12U C13G | 1.34
18 | U7G U8G G9U U11C C12U C13A | 1.35
19 | U7G U8G G9U U11C C12U C13U | 1.33
20 | U7G U8G G9U U11C C12U C13G | 1.38
21 | U7G U8G U10A U11A C12U | 1.25
22 | U7G U8G U10A U11A C12G | 1.22
23 | U7G U8G U10A U11A C12A | 1.13
24 | U7G U8G U10A U11C C12G | 1.25

Row | Variant | aptazyme ON/OFF ratio
25 | U7G U8G U10A U11C C12A | 1.4
26 | U7G U8G U10A U11C C12U | 1.42
27 | U7G U8G U11G C13U | 1.28
28 | U7G U8G U11G C13G | 1.39
29 | U7G U8G U11G C13A | 1.21
30 | U7G U8G U10G U11C C12U C13A | 1.12
31 | U7G U8G U10G U11C C12U C13G | 1.15
32 | U7G U8G U10G U11C C12U C13U | 1.36
33 | U7G U8G G9U U11A | 2.18
34 | U7G U8G G9U U11C | 3.17
35 | U7G U8G G9U U11G | 2.02
36 | U7G U8G U10C U11G C12A C13A | 1.15
37 | U7G U8G U10C U11G C12A C13G | 1.16
38 | U7G U8G U10C U11G C12A C13U | 1.22
39 | U7G U8G U11C C12U C13G | 1.3
40 | U7G U8G U11C C12U C13U | 1.44
41 | U7G U8G U11C C12U C13A | 1.38
42 | U7G U8G U11G C12A | 1.42
43 | U7G U8G U11G C12U | 1.25
44 | U7G U8G U11G C12G | 1.28
45 | U7G U8G U10C U11C C12G C13G | 1.2
46 | U7G U8G U10C U11C C12G C13U | 1.45
47 | U7G U8G U10C U11C C12G C13A | 1.24
48 | U7G U8G U11C C12A C13U | 1.26

Row | Variant | aptazyme ON/OFF ratio
49 | U7G U8G U11C C12A C13G | 1.15
50 | U7G U8G U11C C12A C13A | 1.42
51 | U7G U8G U11G C12A C13A | 1.24
52 | U7G U8G U11G C12A C13G | 1.21
53 | U7G U8G U11G C12A C13U | 1.35
54 | U7G U8G G9U U11C C12A C13A | 1.23
55 | U7G U8G G9U U11C C12A C13U | 1.23
56 | U7G U8G G9U U11C C12A C13G | 1.15
57 | U7G U8G G9U U10G U11A C12A C13U | 1.18
58 | U7G U8G G9U U10G U11A C12A C13G | 1.06
59 | U7G U8G G9U U10G U11A C12A C13A | 1.07
60 | U7G U8G U10G U11G C12A | 1.23
61 | U7G U8G U10G U11G C12U | 1.36
62 | U7G U8G U10G U11G C12G | 1.26
63 | U7G U8G U10C C12U | 1.52
64 | U7G U8G U10C C12G | 1.09
65 | U7G U8G U10C C12A | 1.49
66 | U7G U8G U11C C12U | 1.37
67 | U7G U8G U11C C12A | 1.31
68 | U7G U8G U11C C12G | 1.15
69 | U7G U8G U10C | 1.38
70 | U7G U8G U10G | 1.37
71 | U7G U8G U10A | 2.24
72 | U7G U8G U10A U11G C12U C13U | 1.22

Row | Variant | aptazyme ON/OFF ratio
73 | U7G U8G U10A U11G C12U C13A | 1.23
74 | U7G U8G U10A U11G C12U C13G | 1.36
75 | U7G U8G U10A U11C C12G C13G | 1.11
76 | U7G U8G U10A U11C C12G C13U | 1.29
77 | U7G U8G U10A U11C C12G C13A | 1.16
78 | U7G U8G U10C U11A C12U C13A | 1.37
79 | U7G U8G U10C U11A C12U C13U | 1.31
80 | U7G U8G U10C U11A C12U C13G | 1.37
81 | U7G U8G U10A U11A C12A C13U | 1.21
82 | U7G U8G U10A U11A C12A C13G | 1.22
83 | U7G U8G U10A U11A C12A C13A | 1.31
84 | U7G U8G U10A C12U C13G | 1.18
85 | U7G U8G U10A C12U C13U | 1.09
86 | U7G U8G U10A C12U C13A | 1.16
87 | U7G U8G U10A U11A C12U C13G | 1.22
88 | U7G U8G U10A U11A C12U C13A | 1.44
89 | U7G U8G U10A U11A C12U C13U | 1.15
90 | U7G U8G G9U U11A C12A C13G | 1.13
91 | U7G U8G G9U U11A C12A C13A | 1.07
92 | U7G U8G G9U U11A C12A C13U | 1.18
93 | U7G U8G G9U U10G U11A C12G C13A | 1.08
94 | U7G U8G G9U U10G U11A C12G C13G | 1.15
95 | U7G U8G G9U U10G U11A C12G C13U | 1.14
96 | U7G U8G U11G C12G C13A | 1.18

Row | Variant | aptazyme ON/OFF ratio
97 | U7G U8G U11G C12G C13U | 1.09
98 | U7G U8G U11G C12G C13G | 1.21
99 | U7G U8G U10G U11C C13G | 1.29
100 | U7G U8G U10G U11C C13A | 1.02
101 | U7G U8G U10G U11C C13U | 1.15
102 | U7G U8G U11C C13G | 1.27
103 | U7G U8G U11C C13U | 1.25
104 | U7G U8G U11C C13A | 1.41
105 | U7G U8G U10A U11G C12G C13U | 1.22
106 | U7G U8G U10A U11G C12G C13G | 1.23
107 | U7G U8G U10A U11G C12G C13A | 1.15
108 | U7G U8G G9U U11G C12U | 1.45
109 | U7G U8G G9U U11G C12A | 1.32
110 | U7G U8G G9U U11G C12G | 1.41
111 | U7G U8G U10G U11G C13A | 1.62
112 | U7G U8G U10G U11G C13U | 1.37
113 | U7G U8G U10G U11G C13G | 1.13
114 | U7G U8G U10G U11G C12G C13G | 1.18
115 | U7G U8G U10G U11G C12G C13A | 1.42
116 | U7G U8G U10G U11G C12G C13U | 1.31
117 | U7G U8G U10A C12G C13G | 1.2
118 | U7G U8G U10A C12G C13A | 1.16
119 | U7G U8G U10A C12G C13U | 0.978
120 | U7G U8G U10C U11G C12A | 1.41

Row | Variant | aptazyme ON/OFF ratio
121 | U7G U8G U10C U11G C12U | 1.23
122 | U7G U8G U10C U11G C12G | 1.43
123 | U7G U8G U10C U11A C12A C13A | 1.08
124 | U7G U8G U10C U11A C12A C13U | 1.14
125 | U7G U8G U10C U11A C12A C13G | 1.12
126 | U7G U8G U10C U11G C12U C13A | 1.16
127 | U7G U8G U10C U11G C12U C13U | 1.41
128 | U7G U8G U10C U11G C12U C13G | 1.52
129 | U7G U8G U10G U11C C12A C13G | 1.3
130 | U7G U8G U10G U11C C12A C13A | 1.53
131 | U7G U8G U10G U11C C12A C13U | 1.46
132 | U7G U8G U10G U11A | 1.66
133 | U7G U8G U10G U11G | 1.39
134 | U7G U8G U10G U11C | 2.08
135 | U7G U8G U10C U11G C12G C13A | 1.19
136 | U7G U8G U10C U11G C12G C13U | 1.32
137 | U7G U8G U10C U11G C12G C13G | 1.41
138 | U7G U8G U11A C12G C13U | 1.33
139 | U7G U8G U11A C12G C13G | 1.15
140 | U7G U8G U11A C12G C13A | 1.11
141 | U7G U8G G9U U10G U11G C12G C13U | 1.14
142 | U7G U8G G9U U10G U11G C12G C13G | 1.06
143 | U7G U8G G9U U10G U11G C12G C13A | 1.09
144 | U7G U8G G9U U10G U11G C12U | 1.18

Row | Variant | aptazyme ON/OFF ratio
145 | U7G U8G G9U U10G U11G C12A | 1.13
146 | U7G U8G G9U U10G U11G C12G | 1.16
147 | U7G U8G G9U U10G U11C C13U | 1.11
148 | U7G U8G G9U U10G U11C C13A | 1.18
149 | U7G U8G G9U U10G U11C C13G | 1.17
150 | U7G U8G U11A C12A C13G | 1.02
151 | U7G U8G U11A C12A C13A | 1.34
152 | U7G U8G U11A C12A C13U | 1.15
153 | U7G U8G U10G U11A C12A C13G | 1.31
154 | U7G U8G U10G U11A C12A C13A | 1.17
155 | U7G U8G U10G U11A C12A C13U | 1.23
156 | U7G U8G U10C U11C C12A C13U | 1.22
157 | U7G U8G U10C U11C C12A C13A | 1.3
158 | U7G U8G U10C U11C C12A C13G | 1.23
159 | U7G U8G U10G C12A C13U | 1.4
160 | U7G U8G U10G C12A C13A | 1.51
161 | U7G U8G U10G C12A C13G | 1.19
162 | U7G U8G U10C U11C C12U | 1.35
163 | U7G U8G U10C U11C C12A | 1.41
164 | U7G U8G U10C U11C C12G | 1.18
165 | U7G U8G U11A C13A | 1.5
166 | U7G U8G U11A C13G | 1.24
167 | U7G U8G U11A C13U | 1.24
